Data published in patent US20230192842A1 (published 2023).
Positions count from the first letter of the chain named.

Key:
Test in all cases: cell-based or functional assay
[1] = target: human CLDN3 Q155A mutant on RKO KO cells (human) (UniProt O15551)
[2] = target: mouse CLDN3 with C-terminal monomeric GFP tag on RKO-KO cells (mouse) (UniProt Q9Z0G9)
[3] = target: human CLDN4 with C-terminal monomeric GFP tag on RKO-KO cells (human) (UniProt O14493)
[4] = target: human CLDN3 I39A mutant on RKO KO cells (human) (UniProt O15551)
[5] = target: human CLDN3 R157A mutant on RKO KO cells (human) (UniProt O15551)
[6] = target: T1, human CLDN6 with C-terminal monomeric GFP tag on RKO-KO cells (human) (UniProt P56747)
T1 sequence (looked up): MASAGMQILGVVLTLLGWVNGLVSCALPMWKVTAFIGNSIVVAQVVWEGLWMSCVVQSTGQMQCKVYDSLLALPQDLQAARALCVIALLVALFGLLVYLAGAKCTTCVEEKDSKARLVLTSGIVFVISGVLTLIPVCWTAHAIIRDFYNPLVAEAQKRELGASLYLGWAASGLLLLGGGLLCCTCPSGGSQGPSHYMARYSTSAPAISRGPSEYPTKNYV

[7] = target: T2, human CLDN3 N38A mutant on RKO KO cells (human, UniProt O15551 1-220)
T2 construct: Single-point alanine mutant, monoclonal RKO KO line with GFP
T2 chain: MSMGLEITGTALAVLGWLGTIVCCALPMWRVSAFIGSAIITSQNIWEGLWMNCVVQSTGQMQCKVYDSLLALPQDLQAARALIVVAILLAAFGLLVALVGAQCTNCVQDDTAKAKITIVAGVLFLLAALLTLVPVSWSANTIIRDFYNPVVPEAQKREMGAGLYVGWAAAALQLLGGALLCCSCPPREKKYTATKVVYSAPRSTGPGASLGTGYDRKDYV

[8] = target: human CLDN3 P152A mutant on RKO KO cells (human) (UniProt O15551)
[9] = target: human CLDN3 K156A mutant on RKO KO cells (human) (UniProt O15551)
[10] = target: human CLDN3 with C-terminal monomeric GFP tag on RKO-KO cells (human) (UniProt O15551)
[11] = target: human CLDN3 I45A mutant on RKO KO cells (human) (UniProt O15551)
[12] = target: human CLDN3 N148A mutant on RKO KO cells (human) (UniProt O15551)
[13] = target: human CLDN3 S42A mutant on RKO KO cells (human) (UniProt O15551)
[14] = target: human CLDN9 with C-terminal monomeric GFP tag on RKO-KO cells (human) (UniProt O95484)
[15] = target: human CLDN3 F34A mutant on RKO KO cells (human) (UniProt O15551)
[16] = target: T3, human CLDN3 E153A mutant on RKO KO cells (human, UniProt O15551 1-220)
T3 construct: Single-point alanine mutant, monoclonal RKO KO line with GFP
T3 chain: T2 chain with A38N, E153A

[17] = target: human CLDN3 V150A mutant on RKO KO cells (human) (UniProt O15551)
[18] = target: human CLDN3 Q43A mutant on RKO KO cells (human) (UniProt O15551)
[19] = target: human CLDN3 P149A mutant on RKO KO cells (human) (UniProt O15551)

Sequence of human CLDN9 with C-terminal monomeric GFP tag on RKO-KO cells (human) (O95484 whole entry): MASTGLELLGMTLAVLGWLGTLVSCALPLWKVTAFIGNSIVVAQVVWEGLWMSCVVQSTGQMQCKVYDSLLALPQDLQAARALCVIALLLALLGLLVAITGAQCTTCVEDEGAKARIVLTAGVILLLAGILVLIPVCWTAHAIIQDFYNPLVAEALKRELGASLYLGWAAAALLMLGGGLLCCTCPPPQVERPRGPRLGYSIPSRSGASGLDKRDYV
Sequence of mouse CLDN3 with C-terminal monomeric GFP tag on RKO-KO cells (mouse) (Q9Z0G9 whole entry): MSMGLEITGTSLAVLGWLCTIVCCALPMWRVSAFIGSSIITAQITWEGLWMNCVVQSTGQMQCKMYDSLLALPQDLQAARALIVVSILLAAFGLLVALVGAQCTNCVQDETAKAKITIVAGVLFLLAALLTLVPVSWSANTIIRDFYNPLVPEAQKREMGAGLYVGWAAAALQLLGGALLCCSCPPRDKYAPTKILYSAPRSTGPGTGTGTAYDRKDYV

IFNγ as % of IFNγ in CLDN3 WT (24 h co-culture, normalised to untransduced T cells) [1]: 86.3%
% Live Cells at Assay Endpoint (40 hrs, donor 92024) [2]: 89%
% Live Cells at Assay Endpoint (70 hrs, donor D5) [2]: 97.7%
% Live Cells at Assay Endpoint (90 hrs, donor 0372470) [2]: 94.5%
% Live Cells at Assay Endpoint (96 hrs, donor C1700979) [2]: 71%
% Live Cells at Assay Endpoint (96 hrs, donor C1700980) [2]: 86%
% Live Cells at Assay Endpoint (120 hrs, donor 0372470) [2]: 81.7%
IFNγ secretion fold change, anti-claudin-3 CAR-T cells vs anti-CD19 CAR-T cells [2]: 439 fold
IFNγ secretion fold change, anti-claudin-3 CAR-T cells vs untransduced T cells [2]: 521 fold
% Live Cells at Assay Endpoint (90 hrs, donor 0372470) [3]: 94.7%
% Live Cells at Assay Endpoint (120 hrs, donor 0372470) [3]: 90.7%
IFNγ secretion fold change, anti-claudin-3 CAR-T cells vs anti-CD19 CAR-T cells [3]: 25.1 fold
IFNγ secretion fold change, anti-claudin-3 CAR-T cells vs untransduced T cells [3]: 29.2 fold
IFNγ as % of IFNγ in CLDN3 WT (24 h co-culture, normalised to untransduced T cells) [4]: 71.5%
IFNγ as % of IFNγ in CLDN3 WT (24 h co-culture, normalised to untransduced T cells) [5]: 107%
% Live Cells at Assay Endpoint (40 hrs, donor 92024) [6]: 96.3%
% Live Cells at Assay Endpoint (96 hrs, donor C1700979) [6]: 96%
% Live Cells at Assay Endpoint (96 hrs, donor C1700980) [6]: 100%
IFNγ secretion fold change, anti-claudin-3 CAR-T cells vs anti-CD19 CAR-T cells [6]: 10.9 fold
IFNγ secretion fold change, anti-claudin-3 CAR-T cells vs untransduced T cells [6]: 2.59 fold
IFNγ as % of IFNγ in CLDN3 WT (24 h co-culture, normalised to untransduced T cells) [7]: 0.11%
IFNγ as % of IFNγ in CLDN3 WT (24 h co-culture, normalised to untransduced T cells) [8]: 61.6%
IFNγ as % of IFNγ in CLDN3 WT (24 h co-culture, normalised to untransduced T cells) [9]: 101%
% Live Cells at Assay Endpoint (40 hrs, donor 92024) [10]: 16.3%
% Live Cells at Assay Endpoint (70 hrs, donor D5) [10]: 0%
% Live Cells at Assay Endpoint (90 hrs, donor 0372470; RKO KO hCLDN3 L14) [10]: -6%
% Live Cells at Assay Endpoint (96 hrs, donor C1700979; RKO KO hCLDN3 L14) [10]: 29%
% Live Cells at Assay Endpoint (96 hrs, donor C1700980; RKO KO hCLDN3 L14) [10]: 57.3%
% Live Cells at Assay Endpoint (120 hrs, donor 0372470) [10]: 20.3%
IFNγ secretion fold change, anti-claudin-3 CAR-T cells vs anti-CD19 CAR-T cells [10]: 2500 fold
IFNγ secretion fold change, anti-claudin-3 CAR-T cells vs untransduced T cells [10]: 1350 fold
IFNγ as % of IFNγ in CLDN3 WT (24 h co-culture, normalised to untransduced T cells) [11]: 66.1%
IFNγ as % of IFNγ in CLDN3 WT (24 h co-culture, normalised to untransduced T cells) [12]: 104%
IFNγ as % of IFNγ in CLDN3 WT (24 h co-culture, normalised to untransduced T cells) [13]: 95.2%
% Live Cells at Assay Endpoint (40 hrs, donor 92024) [14]: 96.7%
% Live Cells at Assay Endpoint (70 hrs, donor D5) [14]: 96.3%
% Live Cells at Assay Endpoint (96 hrs, donor C1700979) [14]: 92.7%
% Live Cells at Assay Endpoint (96 hrs, donor C1700980) [14]: 101%
IFNγ secretion fold change, anti-claudin-3 CAR-T cells vs anti-CD19 CAR-T cells [14]: 14.3 fold
IFNγ secretion fold change, anti-claudin-3 CAR-T cells vs untransduced T cells [14]: 11.3 fold
IFNγ as % of IFNγ in CLDN3 WT (24 h co-culture, normalised to untransduced T cells) [15]: 79.7%
IFNγ as % of IFNγ in CLDN3 WT (24 h co-culture, normalised to untransduced T cells) [16]: 3.56%
IFNγ as % of IFNγ in CLDN3 WT (24 h co-culture, normalised to untransduced T cells) [17]: 91.3%
IFNγ as % of IFNγ in CLDN3 WT (24 h co-culture, normalised to untransduced T cells) [18]: 72.8%
IFNγ as % of IFNγ in CLDN3 WT (24 h co-culture, normalised to untransduced T cells) [19]: 95.5%
B1: 906-009_LNGFR anti-claudin-3 chimeric antigen receptor (scFv orientation L-H, short hCD8 spacer), on T cells (protein, part only; not given: linker, spacer and signaling domains, not shown: large carriers)
chain, part: DIQMTQSPSSLSASVGDRVTITCKASQDINRYIAWYQQKPGKAPKLLIHYTSTLQPGVPSRFSGSGSGTDFTLTISSLQPEDFATYYCLQYETLYSFGQGTKLEIKQVQLVQSGAEVKKPGSSVKVSCKASGYTFTNYWVHWVRQAPGQGLEWMGRIEPNSSGSQYNEKFKNRVTITADKSTSTAYMELSSLRSEDTAVYYCARGVMVPLDYWGQGTLVTVSS
